# According to patent USRE46585 (LABORATOIRE FRANCAIS DU FRACTIONNEMENT ET DES …, dated 2017):
# Changes are numbered by the printed parent chain.
# B1: C3A_13 (other)
# chain: GPPCPAPELLGGPSVFLFPPKPKDTLMISRTPEVTCVVVDVSHEDPEVKFNWYVDGVEVHNAKTKPREEQYNSTYRVVSVLTVLHQDWLDGKEYKCKVSNKALPVPIEKTISKAKGQPREPQVYTLPPSRDELTKNQVSLTCLVKGFYPSDIAVEWESNGQPENNYKTTPPVLDSDGSFFLYSKLTVDKSRWQQGNVFSCSVMHEALHYHYTQKSLSLSPGK
# notes: EU numbering
# B2: T7A_48 (other)
# chain: B1 chain with G1C, P5T, L9R
# notes: EU numbering
# B3: T8A_41 (other)
# chain: B1 chain with G1C, V39E, D90N, V105A, P118S, A153V, Y209S
# notes: EU numbering
# B4: T7A_49 (other)
# chain: B1 chain with G1C, P5T, K95E, V105A, Q137R
# notes: EU numbering
# B5: T7A_46 (other)
# chain: B1 chain with G1C, V39E, D90N, V105A, A153V, G160R, Y209S
# notes: EU numbering
# B6: T5A_90 (other)
# chain: B1 chain with G1C, K167R, S199L
# notes: EU numbering
# B7: T7A_57 (other)
# chain: B1 chain with G1C, P5T, T82A, Q193E
# notes: EU numbering
# B8: T7A_58 (other)
# chain: B1 chain with G1C, V105A, Q137E
# notes: EU numbering
# B9: T7A_87 (other)
# chain: B1 chain with G1C, P5S, V105A, Q137R
# notes: EU numbering
# B10: T6A_93 (other)
# chain: B1 chain with G1C, T74K, Q86R, V105A
# notes: EU numbering
# B11: T7A_35 (other)
# chain: B1 chain with G1C, V105A, Q137R, S219P
# notes: EU numbering
# B12: T7A_24 (other)
# chain: B1 chain with G1C, V39E, D90N, V105A, A153V, N196T
# notes: EU numbering
# B13: T6A_40 (other)
# chain: B1 chain with G1C, P5A, F16L, V39E, D90N, V105A, A153V, N196T, Y209N
# notes: EU numbering
# B14: T8A_34 (other)
# chain: B1 chain with G1C, T82A, V105A, T110A
# notes: EU numbering
# B15: T5A_59 (other)
# chain: B1 chain with G1C, D90N, V105A, Q117R, R130G, E157V
# notes: EU numbering
# B16: C5A_09 (other)
# chain: B1 chain with G1C, F16L, V39E, T82P, D90N, V105A, A153V, Y209S
# notes: EU numbering
# B17: T7A_17 (other)
# chain: B1 chain with G1C, V39E, P66S, D90N, V105A, Q137R, A153V
# notes: EU numbering
# B18: T6A_47 (other)
# chain: B1 chain with G1C, P5T, D90N, K95T, V105A
# notes: EU numbering
# B19: T6A_13 (other)
# chain: B1 chain with G1C, P5T, Q137R
# notes: EU numbering
# B20: T8A_81 (other)
# chain: B1 chain with G1C, V39A, V105A, E157V
# notes: EU numbering
# B21: T8A_45 (other)
# chain: B1 chain with G1C, D90N, V105A, S150A, A153V
# notes: EU numbering
# B22: T7A_18 (other)
# chain: B1 chain with G1C, V39E, D90N, V105A, A153V, Q161R, Y209S
# notes: EU numbering
# B23: T8A_24 (other)
# chain: B1 chain with G1C, V39E, T82P, D90N, V105A, A153V, Y209S
# notes: EU numbering
# B24: T5A_52 (other)
# chain: B1 chain with G1C, A102V
# notes: EU numbering
# B25: T5A_74D (other)
# chain: B1 chain with G1C, P3R, N136D, A153V
# notes: EU numbering
# B26: C6A_78B (other)
# chain: B1 chain with G1C, P3L, T31N, D90N, V105A, A153V
# notes: EU numbering
# B27: C6A_78D (other)
# chain: B1 chain with G1C, P3R, T31N, D90N, V105A, A153V
# notes: EU numbering
# B28: C6A_69D (other)
# chain: B1 chain with G1C, P3L, T82A, E157V, N164T
# notes: EU numbering
# B29: T5A_74C (other)
# chain: B1 chain with G1C, P3L, N136D, A153V
# notes: EU numbering
# B30: T5A_74B (other)
# chain: B1 chain with G1C, P5S, N136D, A153V
# notes: EU numbering
# B31: C6A_60D (other)
# chain: B1 chain with G1C, P3R, P5S, V105A, M203L
# notes: EU numbering
# B32: T5A_74F (other)
# chain: B1 chain with G1C, P3R, P5S, N136D, A153V
# notes: EU numbering
# B33: C6A_60C (other)
# chain: B1 chain with G1C, P3L, P5S, V105A, M203L
# notes: EU numbering
# B34: C6A_74D (other)
# chain: B1 chain with G1C, P3R, V34I, V105A
# notes: EU numbering
# B35: C6A_78F (other)
# chain: B1 chain with G1C, P3R, P5S, T31N, D90N, V105A, A153V
# notes: EU numbering
# B36: C6A_78C (other)
# chain: B1 chain with G1C, P5S, T31N, D90N, V105A, A153V
# notes: EU numbering
# Target: T1, FcRn-p3 fusion protein (human, UniProt P55899 24-297; P61769 21-119)
# T1 construct: baculovirus expressed; coated on ELISA wells; not shown: amino terminal part of bacteriophage p3 protein and CVDE protein
# Assay: phage ELISA pH6
# T1 sequence (P55899 24-297, chain 1 of 2): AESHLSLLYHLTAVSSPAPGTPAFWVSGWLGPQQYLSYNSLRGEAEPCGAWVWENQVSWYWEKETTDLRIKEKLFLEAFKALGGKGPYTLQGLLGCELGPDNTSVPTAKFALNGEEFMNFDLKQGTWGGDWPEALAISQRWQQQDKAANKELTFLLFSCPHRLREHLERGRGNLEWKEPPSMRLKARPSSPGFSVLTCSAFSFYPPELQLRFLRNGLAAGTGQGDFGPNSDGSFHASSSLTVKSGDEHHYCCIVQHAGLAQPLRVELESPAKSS
# T1 sequence (P61769 21-119, chain 2 of 2): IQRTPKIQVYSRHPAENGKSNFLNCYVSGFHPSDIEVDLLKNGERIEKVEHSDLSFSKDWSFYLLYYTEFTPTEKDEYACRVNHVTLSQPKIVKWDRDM
row,Binder,Ratio/Fc-H [fold]
1,B1,5.6
2,B2,3.6
3,B3,2.5
4,B4,3.6
5,B5,2.6
6,B6,1.8
7,B7,2.5
8,B8,2.9
9,B9,2.9
10,B10,1.1
11,B11,1.7
12,B12,2.3
13,B13,2.8
14,B14,1.8
15,B15,2.4
16,B16,4.8
17,B17,2
18,B18,2.8
19,B19,2.9
20,B20,2.5
21,B21,1.8
22,B22,2.8
23,B23,3.5
24,B24,1.9

# Target: T1, FcRn-p3 fusion protein
# Assay: phage ELISA pH6
# Remark: another data set of the same source
row,Binder,Ratio/Fc-H [fold]
1,B1,5.6
2,B25,26
3,B26,14.4
4,B27,28.3
5,B28,4.8
6,B29,7.5
7,B16,4.8
8,B30,5.9
9,B31,7.4
10,B32,16.8
11,B33,5.3
12,B34,18.6
13,B35,9.4
14,B36,9.2

# Target: T1, FcRn-p3 fusion protein
# Assay: phage ELISA pH6 (est.)
row,Binder,Ratio/FWT [fold]
1,B1,17.9
2,B2,11.6
3,B3,7.9
4,B4,11.6
5,B5,8.2
6,B6,5.7
7,B7,8.1
8,B8,9.4
9,B9,9.3
10,B10,3.5
11,B11,5.4
12,B12,7.2
13,B13,9.1
14,B14,5.6
15,B15,7.8
16,B16,15.2
17,B17,6.3
18,B18,9.1
19,B19,9.3
20,B20,8.2
21,B21,5.9
22,B22,8.9
23,B23,11.1
24,B24,5.9

# Target: T1, FcRn-p3 fusion protein
# Assay: phage ELISA pH6 (est.)
# Remark: another data set of the same source
row,Binder,Ratio/Fc-WT [fold]
1,B1,17.9
2,B25,83.1
3,B26,45.9
4,B27,90.5
5,B28,15.3
6,B29,24
7,B16,15.2
8,B30,18.8
9,B31,23.8
10,B32,53.8
11,B33,17.1
12,B34,59.7
13,B35,30.1
14,B36,29.4
